One substance from US20260001927A1 can be followed below.

In the assay the target is IL-10 receptors IL-10RA and IL-10RB engineered into U2OS osteosarcoma cells (UniProt Q13651). The assay can be described thus: cell-based or functional assay.

“recombinant human IL-10 (rhIL-10) (from UniProt P22301 19-178) (ligand)” registered an EC50, luminescence from ligand-induced IL-10RA/IL-10RB receptor dimerization in engineered U2OS cells of 91.5 pM.
